System: enolase (ENO) (Mycoplasma gallisepticum S6)
Assay: EMSA
Conditions: EMSA: 20 mM carbonate buffer pH 9.8, 6% glycerol, 2.5 pmol FAM-DNA, 10 min 37 C, 6% acrylamide gel at 10 C. AFM: 20 mM Tris-HCl pH 7.5 (Methods; Fig 6 legend …)

Substance	Kd (Hill n 3.1 +/- 0.6) [µM]	Kd (Hill n 2.7 +/- 0.8) [µM]
Peno	1	
Pgapd		1.1

Source: article PMC8637272
